{"source": "paper PMC6987408", "about": "“Structural Insights Into the Transcriptional Regulation of HigBA Toxin–Antitoxin System by Antitoxin HigA in Pseudomonas aeruginosa” (Frontiers in Microbiology, 2019)", "key": {"[1]": {"biological_target": "PaHigA (Pseudomonas aeruginosa PAO1) (UniProt Q9HVC1)", "assay": "ITC", "conditions": "ITC: 20 mM Tris pH 8.0, 100 mM NaCl, 5% glycerol, 20 C, 400 uM DNA into 100 uM PaHigA; EMSA: DNA annealed in 10 mM NaCl, 20 mM Tris pH 8.0, 30 min at room …"}, "[2]": {"biological_target": "the molecule itself", "assay": "SAXS; apo PaHigA in solution at 1, 3 and 5 mg/ml, 22°C; oligomeric state from the fit to the dimer's theoretical curve and from the calculated molecular mass"}, "[3]": {"biological_target": "PaHigA (Pseudomonas aeruginosa PAO1, UniProt Q9HVC1 1-101)", "assay": "crystal structure; 2.50 A; water-mediated contacts; ITC: 20 mM Tris pH 8.0, 100 mM NaCl, 5% glycerol, 20 C, 400 uM DNA into 100 uM PaHigA; EMSA: DNA annealed in 10 mM NaCl, 20 mM Tris pH 8.0, 30 min at room temperature, 5% native gel at 20 C", "conditions": "protein: recombinant; tags: C-terminal His6; chain copies: 4"}}, "data": [{"molecule": "PhigBA 28-bp duplex", "values": [{"measurement": "Ka", "setting": "[1]", "value": "7.5e+13", "unit": "M^-2"}]}, {"molecule": "PaHigA (Pseudomonas aeruginosa antitoxin HigA) (natural protein, Pseudomonas aeruginosa PAO1, UniProt Q9HVC1 1-101, looked up, Antitoxin HigA of P. aeruginosa PAO1, gene higA (PA4674), full length amplified from the PAO1 genome; Cloned NcoI/BamHI into pET28b with a C-terminal His tag; the construct comes from Guo et al., 2019; also called PaHigA-His; apo PaHigA; source: E. coli BL21(DE3) pLysS, purified (nickel-nitrilotriacetic acid resin, gel filtration on Superdex 200); not shown: His6, C-terminal, kept) MATNGMRPIHPGEILRDEFLMEFDISPAALARALKVSAPTVNDIVREQRGISADMAIRLGRYFDTSAQFWMNLQSEYSLATAYAANGKQIEHEIEPLLAHG", "values": [{"measurement": "stoichiometry N", "setting": "[2]", "value": 2}]}, {"molecule": "PhigBA 18-bp duplex (dsDNA) DNA 1: ACGCTTAACGTTAAGGGT DNA 2: ACCCTTAACGTTAAGCGT", "values": [{"measurement": "binding result", "setting": "[3]", "value": "binds"}]}]}
